This note sets out measurements from article PMC7054857 (The Journal of General Physiology, 2020).

Assay in all cases: FRET or BRET
A general note: BRET reads energy transfer from a luciferase to a nearby fluorophore.

Test [1] addresses ASIC3(1–43,466–505)1a-CER (rat) (UniProt O35240).
Test [2] addresses ASIC3(466–505)1a-CER (rat) (UniProt O35240).
Test [3] addresses ASIC3(506–519)1a-CER (rat) (UniProt O35240).
In test [4] the target is T1, ASIC3(44–71)1a-CER (rat, UniProt O35240 1-43; P55926 44-71; O35240 72-533).
T1 chain (looked up): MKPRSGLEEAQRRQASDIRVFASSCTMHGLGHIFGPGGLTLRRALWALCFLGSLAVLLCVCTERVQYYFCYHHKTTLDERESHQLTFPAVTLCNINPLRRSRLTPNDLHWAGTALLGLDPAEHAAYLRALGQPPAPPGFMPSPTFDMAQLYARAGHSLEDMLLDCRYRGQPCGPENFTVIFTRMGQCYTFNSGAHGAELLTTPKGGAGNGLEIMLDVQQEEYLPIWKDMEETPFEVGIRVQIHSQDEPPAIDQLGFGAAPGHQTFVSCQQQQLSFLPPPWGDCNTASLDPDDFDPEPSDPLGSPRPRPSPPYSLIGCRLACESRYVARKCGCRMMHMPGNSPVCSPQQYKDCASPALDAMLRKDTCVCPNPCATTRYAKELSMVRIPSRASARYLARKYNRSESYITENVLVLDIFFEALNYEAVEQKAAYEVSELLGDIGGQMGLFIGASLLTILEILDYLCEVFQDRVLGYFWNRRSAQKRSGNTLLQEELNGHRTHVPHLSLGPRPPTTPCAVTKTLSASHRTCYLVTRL

Test [5] addresses T2, ASIC3(Q269G)-CER (rat, UniProt O35240 1-533, Q269G).
T2 sequence (looked up): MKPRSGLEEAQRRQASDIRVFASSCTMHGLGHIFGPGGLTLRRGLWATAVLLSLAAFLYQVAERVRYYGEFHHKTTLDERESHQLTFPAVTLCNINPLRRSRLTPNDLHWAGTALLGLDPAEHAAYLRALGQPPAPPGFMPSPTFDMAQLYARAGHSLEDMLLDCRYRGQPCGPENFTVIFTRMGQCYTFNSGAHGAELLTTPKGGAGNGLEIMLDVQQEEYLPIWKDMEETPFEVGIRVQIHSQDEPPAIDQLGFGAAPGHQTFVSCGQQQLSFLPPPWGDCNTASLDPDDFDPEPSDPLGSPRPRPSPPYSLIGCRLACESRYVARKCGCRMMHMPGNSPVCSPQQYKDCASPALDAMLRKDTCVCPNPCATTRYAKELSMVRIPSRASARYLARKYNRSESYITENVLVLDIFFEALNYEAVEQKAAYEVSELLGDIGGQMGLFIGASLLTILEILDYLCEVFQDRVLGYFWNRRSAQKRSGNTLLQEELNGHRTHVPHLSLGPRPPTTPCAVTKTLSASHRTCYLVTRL

Test [6] deals with T3, ASIC3-CER (rat acid-sensing ion channel 3 with a C-terminal mCerulean3) (rat, UniProt O35240 1-533).
T3 sequence (looked up): T2 sequence (looked up) with G269Q

Substitutions are numbered along the chain they refer to.

B1: STOM-YFP (mouse stomatin with a C-terminal EYFP) (natural protein, UniProt P54116 1-284, looked up)
chain: MSDKRQSSHVQSQRIPESFRENSKTELGACGWILVAASFFFVIITFPISIWICIKIVKEYERVIIFRLGRILQGGAKGPGLFFILPCTDSLIKVDMRTISFDIPPQEVLTKDSVTISVDGVVYYRVQNATLAVANITNADSATRLLAQTTLRNALGTKNLSQILSDREEIAHHMQSTLDDATDDWGIKVERVEIKDVKLPVQLQRAMAAEAEAAREARAKVIAAEGEMNASRALKEASMVITESPAALQLRYLQTLTTIAAEKNSTIVFPLPVDMLQGIMGSNH
With B1, the FRET efficiency in test [1] worked out at 9.3%; in test [2], 13.1%; in test [3] it was 9.9%; in test [4], 11.8%; in test [5], 10.3%; in test [6], 12.5%.
